Laboratory results reported in FireProtDB (doi:10.1021/bi010565n).

B1: Guanyl-specific ribonuclease T1, P00651 (parent)
chain: MMYSKLLTLTTLLLPTALALPSLVERACDYTCGSNCYSSSDVSTAQAAGYQLHEDGETVGSNSYPHKYNNYEGFDFSVSSPYYEWPILSSGDVYSGGSPGADRVVFNENNQLAGVITHTGASGNNFVECT

Variants of: B1
Conditions: Aspergillus oryzae (strain ATCC 42149 / RIB 40); pH 7; 25 °C; Thermal; DSC; MOPS 30 mM; reversible: yes(0.98); structure 1RN1; whole UniProt chain shown

Variant	ddG of mutation (higher = less stable)	heat capacity change of unfolding
V104T	3.1 kcal/mol	1.29 kcal/mol/K
V42A	2.19 kcal/mol	1.29 kcal/mol/K

Same assay, conditions: Aspergillus oryzae (strain ATCC 42149 / RIB 40); pH 7; 25 °C; Urea; CD; MOPS 30 mM; reversible: yes(0.98); structure 1RN1; whole UniProt chain shown

Variant	ddG of mutation (higher = less stable)
V104T	4.08 kcal/mol

Same assay, conditions: Aspergillus oryzae (strain ATCC 42149 / RIB 40); pH 7; Thermal; CD; MOPS 30 mM; reversible: yes(0.98); structure 1RN1; whole UniProt chain shown

Variant	Tm	change of melting temperature, mutant - wild type (higher = more stable)
V104T	41.4 °C	-9.8 °C
V42A	43 °C	-8.2 °C

Same assay, conditions: Aspergillus oryzae (strain ATCC 42149 / RIB 40); pH 7; Thermal; DSC; MOPS 30 mM; reversible: yes(0.98); structure 1RN1; whole UniProt chain shown

Variant	Tm	change of melting temperature, mutant - wild type (higher = more stable)
V104T	40.2 °C	-11.3 °C
V42A	44.5 °C	-7 °C

Same assay, conditions: Aspergillus oryzae (strain ATCC 42149 / RIB 40); pH 7; 25 °C; Urea; CD; MOPS 30 mM; structure 1RN1; whole UniProt chain shown

Variant	ddG of mutation (higher = less stable)
V104C	3.67 kcal/mol
V104A	4.08 kcal/mol
V115T	3.07 kcal/mol
V115S	4.87 kcal/mol
V115C	3.54 kcal/mol

Same assay, conditions: Aspergillus oryzae (strain ATCC 42149 / RIB 40); pH 7; Thermal; CD; MOPS 30 mM; structure 1RN1; whole UniProt chain shown

Variant	Tm	change of melting temperature, mutant - wild type (higher = more stable)
V104S	34.6 °C	-16.6 °C
V104A	43.3 °C	-7.9 °C
V115T	38 °C	-13.2 °C
V115S	29.6 °C	-21.6 °C
V115C	46.3 °C	-4.9 °C

Same assay, conditions: Aspergillus oryzae (strain ATCC 42149 / RIB 40); pH 7; 25 °C; Thermal; DSC; MOPS 30 mM; reversible: yes(1.03); structure 1RN1; whole UniProt chain shown

Variant	ddG of mutation (higher = less stable)	heat capacity change of unfolding
V42S	4.71 kcal/mol	1.29 kcal/mol/K

Same assay, conditions: Aspergillus oryzae (strain ATCC 42149 / RIB 40); pH 7; 25 °C; Urea; CD; MOPS 30 mM; reversible: yes(1.03); structure 1RN1; whole UniProt chain shown

Variant	ddG of mutation (higher = less stable)
V42S	4.66 kcal/mol

Same assay, conditions: Aspergillus oryzae (strain ATCC 42149 / RIB 40); pH 7; Thermal; CD; MOPS 30 mM; reversible: yes(1.03); structure 1RN1; whole UniProt chain shown

Variant	Tm	change of melting temperature, mutant - wild type (higher = more stable)
V42S	35.6 °C	-15.6 °C

Same assay, conditions: Aspergillus oryzae (strain ATCC 42149 / RIB 40); pH 7; Thermal; DSC; MOPS 30 mM; reversible: yes(1.03); structure 1RN1; whole UniProt chain shown

Variant	Tm	change of melting temperature, mutant - wild type (higher = more stable)
V42S	36.9 °C	-14.6 °C

Same assay, conditions: Aspergillus oryzae (strain ATCC 42149 / RIB 40); pH 7; 25 °C; Thermal; DSC; MOPS 30 mM; reversible: yes(1.04); structure 1RN1; whole UniProt chain shown

Variant	ddG of mutation (higher = less stable)	heat capacity change of unfolding
V42T	4.1 kcal/mol	1.29 kcal/mol/K

Same assay, conditions: Aspergillus oryzae (strain ATCC 42149 / RIB 40); pH 7; 25 °C; Urea; CD; MOPS 30 mM; reversible: yes(1.04); structure 1RN1; whole UniProt chain shown

Variant	ddG of mutation (higher = less stable)
V42T	3.2 kcal/mol

Same assay, conditions: Aspergillus oryzae (strain ATCC 42149 / RIB 40); pH 7; Thermal; DSC; MOPS 30 mM; reversible: yes(1.04); structure 1RN1; whole UniProt chain shown

Variant	Tm	change of melting temperature, mutant - wild type (higher = more stable)
V42T	42.1 °C	-9.4 °C

Same assay, conditions: Aspergillus oryzae (strain ATCC 42149 / RIB 40); pH 7; 25 °C; Thermal; DSC; MOPS 30 mM; reversible: yes(0.18); structure 1RN1; whole UniProt chain shown

Variant	ddG of mutation (higher = less stable)	heat capacity change of unfolding
V42C	4.68 kcal/mol	1.29 kcal/mol/K

Same assay, conditions: Aspergillus oryzae (strain ATCC 42149 / RIB 40); pH 7; 25 °C; Urea; CD; MOPS 30 mM; reversible: yes(0.18); structure 1RN1; whole UniProt chain shown

Variant	ddG of mutation (higher = less stable)
V42C	5.3 kcal/mol

Same assay, conditions: Aspergillus oryzae (strain ATCC 42149 / RIB 40); pH 7; Thermal; CD; MOPS 30 mM; reversible: yes(0.18); structure 1RN1; whole UniProt chain shown

Variant	Tm	change of melting temperature, mutant - wild type (higher = more stable)
V42C	41.6 °C	-9.6 °C

Same assay, conditions: Aspergillus oryzae (strain ATCC 42149 / RIB 40); pH 7; Thermal; DSC; MOPS 30 mM; reversible: yes(0.18); structure 1RN1; whole UniProt chain shown

Variant	Tm	change of melting temperature, mutant - wild type (higher = more stable)
V42C	42.6 °C	-8.9 °C
